# Patent US20070077617
# Entries after “also recorded” stand apart in the source; their conditions may differ.
# Experiments:
# [1] = target: human adrenocorticotropic hormone(1-24) fusion protein PAC
# [2] = target: human calcitonin precursor fusion protein PCT
# Sequence of fusion protein PA3D23′ (chain, as listed by the source): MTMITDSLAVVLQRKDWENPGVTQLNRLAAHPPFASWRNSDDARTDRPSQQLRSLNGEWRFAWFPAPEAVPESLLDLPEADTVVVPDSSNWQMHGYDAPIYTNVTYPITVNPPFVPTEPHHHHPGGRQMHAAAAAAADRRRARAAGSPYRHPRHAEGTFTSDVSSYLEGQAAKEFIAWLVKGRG
# Sequence of fusion protein PMT (chain, as listed by the source): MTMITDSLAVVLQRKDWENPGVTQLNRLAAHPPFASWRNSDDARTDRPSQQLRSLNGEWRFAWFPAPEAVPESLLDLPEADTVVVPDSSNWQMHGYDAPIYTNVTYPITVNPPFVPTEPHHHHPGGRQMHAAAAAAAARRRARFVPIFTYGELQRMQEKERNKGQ
# Sequence of fusion protein PA1′A3′ (chain, as listed by the source): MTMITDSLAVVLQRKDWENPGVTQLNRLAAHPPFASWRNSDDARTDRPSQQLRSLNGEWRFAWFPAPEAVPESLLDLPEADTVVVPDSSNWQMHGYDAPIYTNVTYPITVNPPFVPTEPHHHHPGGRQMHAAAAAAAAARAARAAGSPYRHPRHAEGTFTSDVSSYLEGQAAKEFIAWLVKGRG
# Sequence of fusion protein PA5D23′ (chain, as listed by the source): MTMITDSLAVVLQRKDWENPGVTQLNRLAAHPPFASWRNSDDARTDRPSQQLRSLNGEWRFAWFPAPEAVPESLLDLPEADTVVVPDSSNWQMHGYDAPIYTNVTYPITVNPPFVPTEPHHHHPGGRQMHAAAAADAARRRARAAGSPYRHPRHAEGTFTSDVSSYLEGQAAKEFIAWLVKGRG
# Sequence of fusion protein PA3′ (chain, as listed by the source): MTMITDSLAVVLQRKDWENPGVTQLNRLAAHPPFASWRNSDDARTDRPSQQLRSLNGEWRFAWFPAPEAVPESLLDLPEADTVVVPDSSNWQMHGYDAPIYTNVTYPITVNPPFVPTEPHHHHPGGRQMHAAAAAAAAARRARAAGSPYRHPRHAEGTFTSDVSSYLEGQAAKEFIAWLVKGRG
# Sequence of fusion protein PA323′ (chain, as listed by the source): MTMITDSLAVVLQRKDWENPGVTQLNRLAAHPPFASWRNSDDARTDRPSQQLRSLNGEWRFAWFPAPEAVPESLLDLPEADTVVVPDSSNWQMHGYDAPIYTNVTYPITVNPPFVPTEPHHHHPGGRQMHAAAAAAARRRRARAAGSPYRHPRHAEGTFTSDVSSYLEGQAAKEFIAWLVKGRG
# Sequence of fusion protein PA4D23′ (chain, as listed by the source): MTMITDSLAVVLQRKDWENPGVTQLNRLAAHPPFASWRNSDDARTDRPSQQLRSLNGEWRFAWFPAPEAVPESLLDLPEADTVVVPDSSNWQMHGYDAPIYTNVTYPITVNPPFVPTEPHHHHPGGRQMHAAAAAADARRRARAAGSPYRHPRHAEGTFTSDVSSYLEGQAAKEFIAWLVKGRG
# Sequence of fusion protein PA23′ (chain, as listed by the source): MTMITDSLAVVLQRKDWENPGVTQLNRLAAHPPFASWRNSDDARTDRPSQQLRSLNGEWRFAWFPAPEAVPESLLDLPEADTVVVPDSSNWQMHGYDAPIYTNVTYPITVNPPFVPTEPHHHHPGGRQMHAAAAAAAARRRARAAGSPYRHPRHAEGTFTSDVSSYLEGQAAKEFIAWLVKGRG
# Sequence of fusion protein PA2 (chain, as listed by the source): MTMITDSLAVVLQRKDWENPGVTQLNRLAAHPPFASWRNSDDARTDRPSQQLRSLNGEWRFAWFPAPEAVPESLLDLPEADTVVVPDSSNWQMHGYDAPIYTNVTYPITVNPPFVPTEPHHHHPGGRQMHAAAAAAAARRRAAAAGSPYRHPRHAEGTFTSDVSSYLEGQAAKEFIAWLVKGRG
# Sequence of fusion protein PA2′3′ (chain, as listed by the source): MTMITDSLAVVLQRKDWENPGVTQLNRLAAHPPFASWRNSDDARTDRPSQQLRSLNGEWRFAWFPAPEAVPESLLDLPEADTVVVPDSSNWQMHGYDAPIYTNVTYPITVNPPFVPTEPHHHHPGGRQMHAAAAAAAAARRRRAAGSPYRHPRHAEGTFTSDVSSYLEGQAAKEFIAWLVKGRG
# Sequence of fusion protein PA6 (chain, as listed by the source): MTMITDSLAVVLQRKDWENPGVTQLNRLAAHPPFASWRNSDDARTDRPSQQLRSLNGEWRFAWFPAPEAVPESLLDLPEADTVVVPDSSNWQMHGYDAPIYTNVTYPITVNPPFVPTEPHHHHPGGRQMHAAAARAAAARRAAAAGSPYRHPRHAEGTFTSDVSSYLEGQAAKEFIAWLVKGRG
# Sequence of fusion protein PA9 (chain, as listed by the source): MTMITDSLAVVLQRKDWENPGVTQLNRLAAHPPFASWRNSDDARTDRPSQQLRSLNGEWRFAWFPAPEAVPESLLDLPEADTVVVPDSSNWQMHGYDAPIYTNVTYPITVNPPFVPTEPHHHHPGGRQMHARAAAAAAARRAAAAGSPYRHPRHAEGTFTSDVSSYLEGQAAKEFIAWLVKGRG
# Sequence of fusion protein PA4′ (chain, as listed by the source): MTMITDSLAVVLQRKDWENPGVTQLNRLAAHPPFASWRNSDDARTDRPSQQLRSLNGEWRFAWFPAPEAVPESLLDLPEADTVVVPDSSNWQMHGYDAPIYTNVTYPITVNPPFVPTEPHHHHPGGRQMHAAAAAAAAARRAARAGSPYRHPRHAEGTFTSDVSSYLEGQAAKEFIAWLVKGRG
# Sequence of fusion protein PA2′ (chain, as listed by the source): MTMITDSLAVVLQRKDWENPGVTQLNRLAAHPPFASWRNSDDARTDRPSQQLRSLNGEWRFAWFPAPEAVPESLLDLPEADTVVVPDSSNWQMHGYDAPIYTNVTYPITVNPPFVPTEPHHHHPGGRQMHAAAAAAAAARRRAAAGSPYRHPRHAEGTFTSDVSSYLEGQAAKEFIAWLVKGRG
# Sequence of fusion protein PA5 (chain, as listed by the source): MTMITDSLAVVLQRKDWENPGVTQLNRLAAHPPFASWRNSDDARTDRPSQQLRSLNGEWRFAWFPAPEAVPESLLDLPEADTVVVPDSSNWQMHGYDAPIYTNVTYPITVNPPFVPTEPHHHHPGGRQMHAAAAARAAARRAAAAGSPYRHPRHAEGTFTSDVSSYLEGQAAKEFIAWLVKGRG
# Sequence of fusion protein PA4 (chain, as listed by the source): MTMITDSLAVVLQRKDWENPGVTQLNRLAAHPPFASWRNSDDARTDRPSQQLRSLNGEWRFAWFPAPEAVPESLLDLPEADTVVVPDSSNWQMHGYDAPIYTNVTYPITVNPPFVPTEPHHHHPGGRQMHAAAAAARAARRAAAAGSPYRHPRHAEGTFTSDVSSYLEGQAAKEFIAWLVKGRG
# Sequence of fusion protein PA3 (chain, as listed by the source): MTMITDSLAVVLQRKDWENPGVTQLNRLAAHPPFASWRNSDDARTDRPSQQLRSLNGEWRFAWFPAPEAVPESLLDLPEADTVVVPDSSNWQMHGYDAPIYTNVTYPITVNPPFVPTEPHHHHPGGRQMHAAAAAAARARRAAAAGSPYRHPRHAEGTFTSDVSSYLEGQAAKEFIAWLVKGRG
# Sequence of fusion protein PA5′ (chain, as listed by the source): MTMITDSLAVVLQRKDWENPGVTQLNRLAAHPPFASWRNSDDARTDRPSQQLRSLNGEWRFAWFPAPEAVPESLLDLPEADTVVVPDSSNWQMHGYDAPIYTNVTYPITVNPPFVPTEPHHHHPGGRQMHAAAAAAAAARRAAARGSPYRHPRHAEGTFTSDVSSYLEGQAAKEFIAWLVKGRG
# Sequence of fusion protein PA10 (chain, as listed by the source): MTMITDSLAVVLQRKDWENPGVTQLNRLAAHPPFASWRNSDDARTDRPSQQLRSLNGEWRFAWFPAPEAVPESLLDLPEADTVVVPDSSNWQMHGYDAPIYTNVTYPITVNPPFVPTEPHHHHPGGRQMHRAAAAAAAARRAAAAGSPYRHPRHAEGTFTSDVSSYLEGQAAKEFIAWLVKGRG
# Sequence of fusion protein PA7 (chain, as listed by the source): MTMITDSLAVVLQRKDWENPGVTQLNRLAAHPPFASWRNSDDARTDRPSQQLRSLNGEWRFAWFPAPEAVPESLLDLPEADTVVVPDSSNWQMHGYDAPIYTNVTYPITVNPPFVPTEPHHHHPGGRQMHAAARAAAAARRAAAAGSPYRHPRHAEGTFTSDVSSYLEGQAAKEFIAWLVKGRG
# Sequence of fusion protein PA8 (chain, as listed by the source): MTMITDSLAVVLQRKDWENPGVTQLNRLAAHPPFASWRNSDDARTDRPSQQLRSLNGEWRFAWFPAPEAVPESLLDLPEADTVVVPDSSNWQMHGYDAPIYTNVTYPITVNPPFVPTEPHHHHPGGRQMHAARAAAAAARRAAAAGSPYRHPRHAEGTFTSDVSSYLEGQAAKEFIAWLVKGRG
# Sequence of fusion protein PA1A3′ (chain, as listed by the source): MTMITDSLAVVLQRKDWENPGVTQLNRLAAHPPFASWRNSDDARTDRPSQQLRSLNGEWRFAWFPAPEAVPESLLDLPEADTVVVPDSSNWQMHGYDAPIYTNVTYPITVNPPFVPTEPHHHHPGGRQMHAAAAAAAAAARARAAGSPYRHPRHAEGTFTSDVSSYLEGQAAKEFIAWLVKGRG
# Sequence of human adrenocorticotropic hormone(1-24) fusion protein PAC (chain, as listed by the source): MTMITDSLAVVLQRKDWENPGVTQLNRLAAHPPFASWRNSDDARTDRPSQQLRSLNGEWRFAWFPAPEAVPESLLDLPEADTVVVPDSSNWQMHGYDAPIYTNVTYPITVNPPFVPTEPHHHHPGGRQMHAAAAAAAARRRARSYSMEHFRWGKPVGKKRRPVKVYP
# Sequence of fusion protein PRG (chain, as listed by the source): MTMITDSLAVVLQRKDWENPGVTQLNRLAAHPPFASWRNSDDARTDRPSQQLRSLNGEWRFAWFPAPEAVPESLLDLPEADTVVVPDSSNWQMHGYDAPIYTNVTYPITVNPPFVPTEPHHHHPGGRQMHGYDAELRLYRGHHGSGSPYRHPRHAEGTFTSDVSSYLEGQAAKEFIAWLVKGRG
# Sequence of fusion protein PRI (chain, as listed by the source): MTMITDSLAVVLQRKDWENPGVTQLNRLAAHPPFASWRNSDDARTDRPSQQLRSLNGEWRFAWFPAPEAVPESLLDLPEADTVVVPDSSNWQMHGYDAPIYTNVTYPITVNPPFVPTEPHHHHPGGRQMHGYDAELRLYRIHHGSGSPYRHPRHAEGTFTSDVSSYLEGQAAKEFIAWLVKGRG
protein,measurement,setting,value
"OmpT protease (wild-type, E. coli mature OmpT protease) (protein) STETLSFTPDNINADISLGTLSGKTKERVYLAEEGGRKVSQLDWKFNNAAIIKGAINWDLMPQISIGAAGWTTLGSRGGNMVDQDWMDSSNPGTWTDESRHPDTQLNYANEFDLNIKGWLLNEPNYRLGLMAGYQESRYSFTARGGSYIYSSEEGFRDDIGSFPNGERAIGYKQRFKMPYIGLTGSYRYEDFELGGTFKYSGWVESSDNDEHYDPGKRITYRSKVKDQNYYSVAVNAGYYVTPNAKVYVEGAWNRVTNKKGNTSLYDHNNNTSDYSKNGAGIENYNFITTAGLKYTF","cleavage (HPLC, mass analysis)",[1],The fusion protein PAC was cleaved at Arg^143-Ser^144 by wild-type OmpT protease to release human adrenocorticotropic hormone(1-24)
same,"cleavage (HPLC, mass analysis)",fusion protein PA323′,"It was confirmed that PA23′, PA323′ and PA2′3′ are cleaved at Arg^143-Ala^144"
same,cleavage at Arg^140-Arg^141 against Arg^143-Ala^144,fusion protein PA323′,at 59% the cleavage efficiency at Arg^143-Ala^144
same,cleavage efficiency at Arg^143-Ala^144 against Arg^140-Arg^141 of PA,fusion protein PA323′,also 2.9 times the cleavage efficiency at Arg^140-Arg^141 of PA
same,relative cleavage efficiency,fusion protein PRL,less than 3%
same,relative cleavage efficiency,fusion protein PRI,< 3%
same,"cleavage (HPLC, mass analysis)",fusion protein PA5,All of the PAn proteins underwent cleavage by OmpT protease at the same site as PA
same,cleavage efficiency against PA,fusion protein PA5,Increase in cleavage efficiency was seen for all of the PAn proteins except for PA2 and PA2′
same,"cleavage (HPLC, mass analysis)",fusion protein PA23′,"It was confirmed that PA23′, PA323′ and PA2′3′ are cleaved at Arg^143-Ala^144"
same,cleavage efficiency at Arg^143-Ala^144 against Arg^140-Arg^141 of PA,fusion protein PA23′,2.9 times the cleavage efficiency at Arg^140-Arg^141 of PA
same,"cleavage (HPLC, mass analysis)",fusion protein PA1A3′,PA1A3′ and PA1′A3′ were both cleaved at Arg^143-Ala^144
same,cleavage efficiency against PA,fusion protein PA1A3′,all of the cleavage efficiencies were lower than the cleavage efficiency at Arg^140-Arg^141 of PA
same,"cleavage (HPLC, mass analysis)",fusion protein PA4D23′,"the major cleavage site of PA5D23′, PA4D23′ and PA3D23′ is Arg^143-Ala^144"
same,cleavage at Arg^139-Arg^140 and Arg^140-Arg^141,fusion protein PA4D23′,no cleavage was detected at Arg^139-Arg^140 and Arg^140-Arg^141 as was detected with PA23′
same,cleavage efficiency at Arg^143-Ala^144 against Arg^140-Arg^141 of PA,fusion protein PA4D23′,"low compared to PA23′, but twice the cleavage efficiency at Arg^140-Arg^141 of PA"
same,"cleavage (HPLC, mass analysis)",fusion protein PA10,All of the PAn proteins underwent cleavage by OmpT protease at the same site as PA
same,cleavage efficiency against PA,fusion protein PA10,Increase in cleavage efficiency was seen for all of the PAn proteins except for PA2 and PA2′
same,relative cleavage efficiency,fusion protein PRR,100%
same,relative cleavage efficiency,fusion protein PRF,< 3%
same,"cleavage (HPLC, mass analysis)",fusion protein PA2′3′,"It was confirmed that PA23′, PA323′ and PA2′3′ are cleaved at Arg^143-Ala^144"
same,cleavage efficiency at Arg^143-Ala^144 against Arg^140-Arg^141 of PA,fusion protein PA2′3′,low at 63% of the cleavage efficiency at Arg^140-Arg^141 of PA
same,relative cleavage efficiency,fusion protein PRK,88%
same,"cleavage (HPLC, mass analysis)",fusion protein PA4′,All of the PAn proteins underwent cleavage by OmpT protease at the same site as PA
same,cleavage efficiency against PA,fusion protein PA4′,Increase in cleavage efficiency was seen for all of the PAn proteins except for PA2 and PA2′
same,cleavage efficiency (reference),fusion protein PA,the cleavage efficiency of the fusion protein PA is 100%
same,relative cleavage efficiency,fusion protein PRN,< 3%
same,"cleavage (HPLC, mass analysis)",[2],"The fusion protein PCT was cleaved at Arg^139-Arg^140 and Arg^140-Arg^141 by wild-type OmpT protease, releasing RRAR-CT and RAR-CT"
same,"cleavage (HPLC, mass analysis)",fusion protein PA2′,"All of the PAn proteins underwent cleavage by OmpT protease at the same site as PA, while PA2, PA2′ and PA3′ also underwent cleavage at other sites"
same,cleavage efficiency against PA,fusion protein PA2′,the cleavage efficiencies of PA2 and PA2′ were reduced to about ⅓
same,"cleavage (HPLC, mass analysis)",fusion protein PA3D23′,"the major cleavage site of PA5D23′, PA4D23′ and PA3D23′ is Arg^143-Ala^144"
same,cleavage at Arg^139-Arg^140 and Arg^140-Arg^141,fusion protein PA3D23′,"no cleavage was detected at Arg^139-Arg^140 and Arg^140-Arg^141, similar to PA4D23′"
same,cleavage efficiency at Arg^143-Ala^144 against Arg^140-Arg^141 of PA,fusion protein PA3D23′,"about the same as the cleavage efficiency at Arg^140-Arg^141 of PA, and lower than PA4D23′"
same,relative cleavage efficiency,fusion protein PRH,less than 3%
same,"cleavage (HPLC, mass analysis)",fusion protein PA3,All of the PAn proteins underwent cleavage by OmpT protease at the same site as PA
same,cleavage efficiency against PA,fusion protein PA3,Increase in cleavage efficiency was seen for all of the PAn proteins except for PA2 and PA2′
same,relative cleavage efficiency,fusion protein PRQ,less than 3%
same,"cleavage (HPLC, mass analysis)",fusion protein PA5D23′,"the major cleavage site of PA5D23′, PA4D23′ and PA3D23′ is Arg^143-Ala^144"
same,cleavage at Arg^140-Arg^141,fusion protein PA5D23′,cleavage was also observed at Arg^140-Arg^141
same,cleavage efficiency at Arg^143-Ala^144 against Arg^140-Arg^141 of PA,fusion protein PA5D23′,1.9 times the cleavage efficiency at Arg^140-Arg^141 of PA
same,relative cleavage efficiency,fusion protein PRA,5.4%
same,relative cleavage efficiency,fusion protein PRE,less than 3%
same,"cleavage (HPLC, mass analysis)",fusion protein PA9,All of the PAn proteins underwent cleavage by OmpT protease at the same site as PA
same,cleavage efficiency against PA,fusion protein PA9,Increase in cleavage efficiency was seen for all of the PAn proteins except for PA2 and PA2′
same,"cleavage (SDS-PAGE, HPLC)",fusion protein PMT,cleavage of the fusion protein PMT by OmpT protease was confirmed
same,release of human motilin (cleavage at Arg^143-Phe^144),fusion protein PMT,"only a very slight amount of peptide cleavage fragment of Arg^143-Phe^144, i.e. human motilin, was detected by mass analysis"
same,relative cleavage efficiency: RAR-motilin (Arg^140-Arg^141),fusion protein PMT; scale: relative,23
same,relative cleavage efficiency: RRAR-motilin (Arg^139-Arg^140),fusion protein PMT; scale: relative,100
same,relative cleavage efficiency,fusion protein PRP,less than 3%
same,"cleavage (HPLC, mass analysis)",fusion protein PA4,All of the PAn proteins underwent cleavage by OmpT protease at the same site as PA
same,cleavage efficiency against PA,fusion protein PA4,PA4 had the highest cleavage efficiency of about 5 times that of PA
same,"cleavage (HPLC, mass analysis)",fusion protein PA2,"All of the PAn proteins underwent cleavage by OmpT protease at the same site as PA, while PA2, PA2′ and PA3′ also underwent cleavage at other sites"
same,cleavage efficiency against PA,fusion protein PA2,the cleavage efficiencies of PA2 and PA2′ were reduced to about ⅓
same,relative cleavage efficiency,fusion protein PRW,less than 3%
same,"cleavage (HPLC, mass analysis)",fusion protein PA3′,"All of the PAn proteins underwent cleavage by OmpT protease at the same site as PA, while PA2, PA2′ and PA3′ also underwent cleavage at other sites"
same,cleavage efficiency against PA,fusion protein PA3′,Increase in cleavage efficiency was seen for all of the PAn proteins except for PA2 and PA2′
same,cleavage efficiency at Arg^140-Arg^141 (PA = 100%),fusion protein PA3′,"cleavage efficiencies: 220%, 73%"
same,cleavage efficiency at Arg^143-Ala^144 (PA = 100%),fusion protein PA3′,"cleavage efficiencies: 220%, 73%"
same,relative cleavage efficiency,fusion protein PRV,3.5%
same,"cleavage (HPLC, mass analysis)",fusion protein PA1′A3′,PA1A3′ and PA1′A3′ were both cleaved at Arg^143-Ala^144; also recorded: Cleavage was also confirmed at Arg^140-Ala^141 in PA1′A3′
same,cleavage efficiency against PA,fusion protein PA1′A3′,all of the cleavage efficiencies were lower than the cleavage efficiency at Arg^140-Arg^141 of PA
same,"cleavage (HPLC, mass analysis)",fusion protein PA7,All of the PAn proteins underwent cleavage by OmpT protease at the same site as PA
same,cleavage efficiency against PA,fusion protein PA7,Increase in cleavage efficiency was seen for all of the PAn proteins except for PA2 and PA2′
same,relative cleavage efficiency,fusion protein PRG,less than 3%
same,"cleavage (HPLC, mass analysis)",fusion protein PA8,All of the PAn proteins underwent cleavage by OmpT protease at the same site as PA
same,cleavage efficiency against PA,fusion protein PA8,Increase in cleavage efficiency was seen for all of the PAn proteins except for PA2 and PA2′
same,relative cleavage efficiency,fusion protein PRD,less than 3%
same,relative cleavage efficiency,fusion protein PRT,< 3%
same,relative cleavage efficiency,fusion protein PRM,< 3%
same,"cleavage (HPLC, mass analysis)",fusion protein PA5′,All of the PAn proteins underwent cleavage by OmpT protease at the same site as PA
same,cleavage efficiency against PA,fusion protein PA5′,Increase in cleavage efficiency was seen for all of the PAn proteins except for PA2 and PA2′
same,relative cleavage efficiency,fusion protein PRS,3.9%
same,relative cleavage efficiency,fusion protein PRY,< 3%
same,cleavage (SDS-PAGE),fusion protein PRMT,no cleavage of PRMT was detected
same,relative cleavage efficiency,fusion protein PRC,3.1%
same,"cleavage (HPLC, mass analysis)",fusion protein PA6,All of the PAn proteins underwent cleavage by OmpT protease at the same site as PA
same,cleavage efficiency against PA,fusion protein PA6,Increase in cleavage efficiency was seen for all of the PAn proteins except for PA2 and PA2′
